Experimental data reported in publication doi:10.1101/2021.05.06.441297.

Biological target: fluorescently labeled non-covalent analog of peptide 5 (UniProt P46937)
Assay: fluorescence polarisation

Chain of UniProt P46937 (P46937 whole entry, looked up, tested part not stated): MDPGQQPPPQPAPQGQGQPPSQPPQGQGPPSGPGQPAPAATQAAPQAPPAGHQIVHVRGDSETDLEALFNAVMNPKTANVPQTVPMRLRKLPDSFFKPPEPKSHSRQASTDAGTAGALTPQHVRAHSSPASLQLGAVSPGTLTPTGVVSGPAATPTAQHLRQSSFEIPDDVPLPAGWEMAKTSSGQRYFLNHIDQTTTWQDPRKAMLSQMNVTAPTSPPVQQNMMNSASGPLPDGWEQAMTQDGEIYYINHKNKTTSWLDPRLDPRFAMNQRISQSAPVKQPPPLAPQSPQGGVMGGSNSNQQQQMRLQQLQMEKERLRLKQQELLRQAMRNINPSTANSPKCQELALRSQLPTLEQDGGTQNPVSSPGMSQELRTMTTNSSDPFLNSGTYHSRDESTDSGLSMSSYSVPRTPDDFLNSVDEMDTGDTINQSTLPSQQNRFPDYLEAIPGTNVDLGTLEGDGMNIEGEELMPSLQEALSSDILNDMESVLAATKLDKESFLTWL

14-3-3σ full length (1-248) (natural protein)
Kd: 106 nM
